Target: HuR full-length (FL-HuR, rHuR) (UniProt Q15717 1-326)
Assay: EMSA; EMSA: 20 mM Tris-HCl pH 7.8, 150 mM KCl, 2 mM MgCl2, 0.1% Triton X-100, 0.5 mM DTT, heparin 5 mg/ml, BSA 1 mg/ml, 10% glycerol, on ice 15 min; 6% native PAGE, 0

Chain of HuR full-length (FL-HuR, rHuR) (Q15717 whole entry): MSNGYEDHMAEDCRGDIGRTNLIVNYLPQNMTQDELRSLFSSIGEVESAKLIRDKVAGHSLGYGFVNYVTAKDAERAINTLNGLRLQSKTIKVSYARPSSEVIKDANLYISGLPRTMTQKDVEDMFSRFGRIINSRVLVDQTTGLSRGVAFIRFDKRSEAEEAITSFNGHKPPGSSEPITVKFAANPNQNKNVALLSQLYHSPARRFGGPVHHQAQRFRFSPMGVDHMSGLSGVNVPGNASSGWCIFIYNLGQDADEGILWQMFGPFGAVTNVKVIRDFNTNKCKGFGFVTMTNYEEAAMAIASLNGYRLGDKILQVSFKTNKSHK

Row | Binder | binding result | Kd [nM]
1 | AUUAUUUAUUAUUUAUUUAUUAUUUAUUUAUUUA (ssRNA) [TNF-alpha 3'UTR ARE RNA] | binds | 
2 | UGGAGUGUGACAAUGGUGUUUG (ssRNA) [miR-122 (5p)] |  | 50

Reference: PMC4967961
